Tested on: Bacillus subtilis
Assay: cleaved RNA product abundance (RNA/gDNA barcode ratio) relative to median wild-type variant (ratio to wild type); higher = more accumulation of the downstream cleavage product
Settings: cleavage site: cggR-gapA (positions -7 to +36 mutated)
Procedure: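 MPRA in B. subtilis. Mutagenized RNase Y cleavage-site regions (9% mutation rate) were inserted into a barcoded reporter mRNA (truncated aprE or tetM). Cells were grown in LB at 37°C to OD600 0.3. The cleaved RNA isoform was gel-purified and its barcodes counted; the RNA:gDNA barcode ratio was normalised to the median wild-type variant, and the median over barcodes is reported per variant. The printed sequence is the variable window only; the reporter flanks are not printed.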

[1] = experiment (reporter, strain, medium): exp 6: tetM reporter, strain 168
[2] = experiment (reporter, strain, medium): exp 4a: truncated aprE reporter, strain BJT201 with 2% xylose (RNase J1 expressed)
[3] = experiment (reporter, strain, medium): exp 2b: truncated aprE reporter, strain BJT200

Sequence: ACAGACGAAGGAGACGCAAAGAAGTTATTAAGGGATGAATAATCCCTCAATATAAATATCTCTCACTTATTTAAA
- cleaved RNA product abundance [1]: 1.03

Sequence: ACAGACGAAGGAGCCACAAAGAAGTTATTAAAGGATGAATAATCCCTCAATATAAATATCTCTCACTTATTTAAA
- cleaved RNA product abundance [1]: 0.254

Sequence: ACAGACGAAGGAGCCACAAAGAAGTTATTAAGGGATGAATAATCCCTCAATATAAATATCTCTCACTTATTTAAA
- cleaved RNA product abundance [1]: 1.09

Sequence: ACAGACGAAGGAGCCCCAAAGAAGTTATTAAGGGATGAATAATCCCTCAATATAAATATCTCTCACTTATTTAAA
- cleaved RNA product abundance [1]: 1.36

Sequence: ACAGACGAAGGAGCCGAAAAGAAGTTATTAAGGGATGAATAATCCCTCAATATAAATATCTCTCACTTATTTAAA
- cleaved RNA product abundance [1]: 0.794

Sequence: ACAGACGAAGGAGCCGAATAGAAGTTATTAAGGGATGAATAATCCCTCAATATAAATATCTCTCACTTATTTAAA
- cleaved RNA product abundance [1]: 0.727

Sequence: ACAGACGAAGGAGCCGCAAAAAAATTATAAAGGGATGAATAATCCCTCAATATAAATATCTCTCACTTATTTAAA
- cleaved RNA product abundance [2]: 0.268

Sequence: ACAGACGAAGGAGCCGCAAAAAAATTATTAAGGGATGAATAATCCCTCAATATAAATATCTCTCACTTATTTAAA
- cleaved RNA product abundance [3]: 1.1
- cleaved RNA product abundance [2]: 1.04

Sequence: ACAGACGAAGGAGCCGCAAAAAAATTATTAAGGGATGAATAATCCCTCATTATAAATATCTCTCACTTATTTAAA
- cleaved RNA product abundance [2]: 0.267

Sequence: ACAGACGAAGGAGCCGCAAAAAACTTATTAAGGGATGAATAATCCCTCAATATAAATATCTCTCACTTATTTAAA
- cleaved RNA product abundance [2]: 0.479

Sequence: ACAGACGAAGGAGCCGCAAAAAACTTATTAAGGGATGATTAATCCCTCAATATAAATATCTCTCACTTATTTAAA
- cleaved RNA product abundance [3]: 0.325

Sequence: ACAGACGAAGGAGCCGCAAAAAAGATATTAAGGGATGAATAATCCCTCAATATAAATATCTCTCACTTATTTAAA
- cleaved RNA product abundance [2]: 0.913
- cleaved RNA product abundance [1]: 0.421

Sequence: ACAGACGAAGGAGCCGCAAAAAAGCTATTAAGGGATGAATAATCCCTCAATATAAATATCTCTCACTTATTTAAA
- cleaved RNA product abundance [3]: 0.392
- cleaved RNA product abundance [2]: 0.855

Sequence: ACAGACGAAGGAGCCGCAAAAAAGGTATTAAGGGATGAATAATCCCTCAATATAAATATCTCTCACTTATTTAAA
- cleaved RNA product abundance [3]: 1.78
- cleaved RNA product abundance [2]: 0.879

Sequence: ACAGACGAAGGAGCCGCAAAAAAGTAATTAAGGGATGAATAATCCCTCAATATAAATATCTCTCACTTATTTAAA
- cleaved RNA product abundance [3]: 0.304
- cleaved RNA product abundance [2]: 0.342

Sequence: ACAGACGAAGGAGCCGCAAAAAAGTCATTAAGGGATGAATAATCCCTCAATATAAATATCTCTCACTTATTTAAA
- cleaved RNA product abundance [2]: 0.37

Sequence: ACAGACGAAGGAGCCGCAAAAAAGTGATTAAGGGATGAATAATCCCTCAATATAAATATCTCTCACTTATTTAAA
- cleaved RNA product abundance [3]: 0.276
- cleaved RNA product abundance [2]: 0.583

Sequence: ACAGACGAAGGAGCCGCAAAAAAGTTAATAAGGGATGAATAATCCCTCAATATAAATATCTCTCACTTATTTAAA
- cleaved RNA product abundance [3]: 0.335
- cleaved RNA product abundance [2]: 0.365

Sequence: ACAGACGAAGGAGCCGCAAAAAAGTTAATAAGGGATGAATATTCCCTCAATATAAATATCTCTCACTTATTTAAA
- cleaved RNA product abundance [2]: 0.21

Sequence: ACAGACGAAGGAGCCGCAAAAAAGTTACTAAGGGATGAATAATCCCTCAATATAAATATCTCTCACTTATTTAAA
- cleaved RNA product abundance [3]: 0.222

Sequence: ACAGACGAAGGAGCCGCAAAAAAGTTAGTAAGGGATGAATAATCCCTCAATATAAATATCTCTCACTTATTTAAA
- cleaved RNA product abundance [2]: 0.374

Sequence: ACAGACGAAGGAGCCGCAAAAAAGTTATAAAGAGATGAATAATCCCTCAATATAAATATCTCTCACTTATTTAAA
- cleaved RNA product abundance [3]: 0.14

Sequence: ACAGACGAAGGAGCCGCAAAAAAGTTATAAAGGGATGAATAATCCCTCAATATAAATATCTCTCACTTATTTAAA
- cleaved RNA product abundance [3]: 0.4
- cleaved RNA product abundance [2]: 0.581

Sequence: ACAGACGAAGGAGCCGCAAAAAAGTTATCAAGGGATGAATAATCCCTCAATATAAATATCTCTCACTTATTTAAA
- cleaved RNA product abundance [2]: 0.507

Sequence: ACAGACGAAGGAGCCGCAAAAAAGTTATGAAGGGATGAATAATCCCTCAATATAAATATCTCTCACTTATTTAAA
- cleaved RNA product abundance [2]: 0.453

Sequence: ACAGACGAAGGAGCCGCAAAAAAGTTATTAAAGGATGAATAATCCCTCAATATAAATATCTCTCACTTATTTAAA
- cleaved RNA product abundance [3]: 0.164
- cleaved RNA product abundance [2]: 0.224

Sequence: ACAGACGAAGGAGCCGCAAAAAAGTTATTAACGGATGAATAATCCCTCAATATAAATATCTCTCACTTATTTAAA
- cleaved RNA product abundance [2]: 0.128

Sequence: ACAGACGAAGGAGCCGCAAAAAAGTTATTAACGGATGAATAATCCTTCAATATAAATATCTCTCACTTATTTAAA
- cleaved RNA product abundance [2]: 0.191

Sequence: ACAGACGAAGGAGCCGCAAAAAAGTTATTAACGGATTAATAATCCCTCAATATAAATATCTCTCACTTATTTAAA
- cleaved RNA product abundance [2]: 0.142

Sequence: ACAGACGAAGGAGCCGCAAAAAAGTTATTAAGAGATAAATAATCCCTCAATATAAATATCTCTCACTTATTTAAA
- cleaved RNA product abundance [2]: 0.0994

Sequence: ACAGACGAAGGAGCCGCAAAAAAGTTATTAAGAGATGAATAATCCCTCAATATAAATATCTCTCACTTATTTAAA
- cleaved RNA product abundance [3]: 0.126
- cleaved RNA product abundance [2]: 0.133
- cleaved RNA product abundance [1]: 0.0928

Sequence: ACAGACGAAGGAGCCGCAAAAAAGTTATTAAGAGATGAATAATCCGTCAATATAAATATCTCTCACTTATTTAAA
- cleaved RNA product abundance [2]: 0.0894

Sequence: ACAGACGAAGGAGCCGCAAAAAAGTTATTAAGAGATGAATAATTCCTCAATATAAATATCTCTCACTTATTTAAA
- cleaved RNA product abundance [2]: 0.159

Sequence: ACAGACGAAGGAGCCGCAAAAAAGTTATTAAGCGATGAATAATCCCTCAATATAAATATCTCTCACTTATTTAAA
- cleaved RNA product abundance [3]: 0.091
- cleaved RNA product abundance [2]: 0.123

Sequence: ACAGACGAAGGAGCCGCAAAAAAGTTATTAAGGAATAAATAATCCCTCAATATAAATATCTCTCACTTATTTAAA
- cleaved RNA product abundance [3]: 0.0862

Sequence: ACAGACGAAGGAGCCGCAAAAAAGTTATTAAGGAATGAACAATCCCTCAATATAAATATCTCTCACTTATTTAAA
- cleaved RNA product abundance [2]: 0.182

Sequence: ACAGACGAAGGAGCCGCAAAAAAGTTATTAAGGAATGAATAATCCCTCAATATAAATATCTCTCACTTATTTAAA
- cleaved RNA product abundance [3]: 0.112
- cleaved RNA product abundance [2]: 0.156

Sequence: ACAGACGAAGGAGCCGCAAAAAAGTTATTAAGGCATGAATAATCCCTCAATATAAATATCTCTCACTTATTTAAA
- cleaved RNA product abundance [3]: 0.104
- cleaved RNA product abundance [2]: 0.126

Sequence: ACAGACGAAGGAGCCGCAAAAAAGTTATTAAGGGAAGAATAATCCCTCAATATAAATATCTCTCACTTATTTAAA
- cleaved RNA product abundance [3]: 0.426
- cleaved RNA product abundance [2]: 0.403

Sequence: ACAGACGAAGGAGCCGCAAAAAAGTTATTAAGGGACGAATAATCCCTCAATATAAATATCTCTCACTTATTTAAA
- cleaved RNA product abundance [3]: 0.676
- cleaved RNA product abundance [2]: 0.54

Sequence: ACAGACGAAGGAGCCGCAAAAAAGTTATTAAGGGATAAATAATCCCTCAATATAAATATCTCTCACTTATTTAAA
- cleaved RNA product abundance [3]: 0.8
- cleaved RNA product abundance [2]: 0.86

Sequence: ACAGACGAAGGAGCCGCAAAAAAGTTATTAAGGGATCAATAATCCCTCAATATAAATATCTCTCACTTATTTAAA
- cleaved RNA product abundance [3]: 0.923
- cleaved RNA product abundance [2]: 0.712

Sequence: ACAGACGAAGGAGCCGCAAAAAAGTTATTAAGGGATGAAAAATCCCTCAATATAAATATCTCTCACTTATTTAAA
- cleaved RNA product abundance [3]: 0.785
- cleaved RNA product abundance [2]: 0.695

Sequence: ACAGACGAAGGAGCCGCAAAAAAGTTATTAAGGGATGAACAATCCCTCAATATAAATATCTCTCACTTATTTAAA
- cleaved RNA product abundance [3]: 0.87
- cleaved RNA product abundance [2]: 0.764

Sequence: ACAGACGAAGGAGCCGCAAAAAAGTTATTAAGGGATGAAGAATCCCTCAATATAAATATCTCTCACTTATTTAAA
- cleaved RNA product abundance [2]: 0.918

Sequence: ACAGACGAAGGAGCCGCAAAAAAGTTATTAAGGGATGAATAAACCCTCAATATAAATATCTCTCACTTATTTAAA
- cleaved RNA product abundance [3]: 0.468
- cleaved RNA product abundance [2]: 0.631

Sequence: ACAGACGAAGGAGCCGCAAAAAAGTTATTAAGGGATGAATAAACCCTCTATATAAATATCTCTCACTTATTTAAA
- cleaved RNA product abundance [2]: 0.22

Sequence: ACAGACGAAGGAGCCGCAAAAAAGTTATTAAGGGATGAATAACCCCTCAATATAAATATCTCTCACTTATTTAAA
- cleaved RNA product abundance [3]: 0.455
- cleaved RNA product abundance [2]: 0.458

Sequence: ACAGACGAAGGAGCCGCAAAAAAGTTATTAAGGGATGAATAAGCCCTCAATATAAATATCTCTCACTTATTTAAA
- cleaved RNA product abundance [3]: 0.639
- cleaved RNA product abundance [2]: 0.793

Sequence: ACAGACGAAGGAGCCGCAAAAAAGTTATTAAGGGATGAATAATACCTCAATATAAATATCTCTCACTTATTTAAA
- cleaved RNA product abundance [3]: 0.139
- cleaved RNA product abundance [2]: 0.17

Sequence: ACAGACGAAGGAGCCGCAAAAAAGTTATTAAGGGATGAATAATCACTCAATATAAATATCTCTCACTTATTTAAA
- cleaved RNA product abundance [3]: 0.108
- cleaved RNA product abundance [2]: 0.12

Sequence: ACAGACGAAGGAGCCGCAAAAAAGTTATTAAGGGATGAATAATCCATCAATATAAATATCTCTCACTTATTTAAA
- cleaved RNA product abundance [3]: 0.17
- cleaved RNA product abundance [2]: 0.307

Sequence: ACAGACGAAGGAGCCGCAAAAAAGTTATTAAGGGATGAATAATCCCACAATATAAATATCTCTCACTTATTTAAA
- cleaved RNA product abundance [3]: 0.237
- cleaved RNA product abundance [2]: 0.254

Sequence: ACAGACGAAGGAGCCGCAAAAAAGTTATTAAGGGATGAATAATCCCCCAATATAAATATCTCTCACTTATTTAAA
- cleaved RNA product abundance [3]: 0.238
- cleaved RNA product abundance [2]: 0.35

Sequence: ACAGACGAAGGAGCCGCAAAAAAGTTATTAAGGGATGAATAATCCCGCAATATAAATATCTCTCACTTATTTAAA
- cleaved RNA product abundance [3]: 0.141
- cleaved RNA product abundance [2]: 0.231

Sequence: ACAGACGAAGGAGCCGCAAAAAAGTTATTAAGGGATGAATAATCCCTAAATATAAATATCTCTCACTTATTTAAA
- cleaved RNA product abundance [3]: 0.57
- cleaved RNA product abundance [2]: 0.765

From the supplement of paper PMC11780869
